# From publication PMC7064778
# Read-outs that look alike come from different tables or passages of the source.
# How the values were obtained:
# [1] = target: PyoS5_(1–315) (P. aeruginosa) (UniProt Q9I4Y4); test: SPR
# [2] = target: PyoS5_(1–315) (P. aeruginosa) (UniProt Q9I4Y4); test: SPR; remark: listed apart in the source
substance,measurement,setting,value
TonB1_(109–342) (domain or fragment),Kd,[1],230 nM
same,Kd,[2],241 nM
